Test results as given in publication PMC3027617 (2011).

Target: 2F5 epitope scaffold ES1
Experiment: SPR

B1: 2F5 monoclonal antibody (antibody, V domains shown)
VH: RITLKESGPPLVKPTQTLTLTCSFSGFSLSDFGVGVGWIRQPPGKALEWLAIIYSDDDKRYSPSLNTRLTITKDTSKNQVVLVMTRVSPVDTATYFCAHRRGPTTLFGVPIARGPVNAMDVWGQGITVTISS
VL: ALQLTQSPSSLSASVGDRITITCRASQGVTSALAWYRQKPGSPPQLLIYDASSLESGVPSRFSGSGSGTEFTLTISTLRPEDFATYYCQQLHFYPHTFGGGTRVDVR
With B1 the koff was 0.00109 s⁻¹.
